Experimental data: patent US20260124313A1, “SITE-SPECIFIC COVALENT LIGATION OF HUMAN SERUM ALBUMIN” (The Regents of the University of California, priority 2022, published 2026)
Non-standard residues stand in square brackets, D forms with d. No end group written: not given here. *: point of attachment. Myristoyl = CCCCCCCCCCCCCC(=O)*; Aad = N[C@@H](CCCC(=O)O)C(=O)O; Acryloyl = C=CC(=O)*

Target: T1, albumin in human serum (Homo sapiens, UniProt P02768)
T1 construct: tissue Sigma Aldrich; host or cells: human serum
Assay: Conjugation to serum-borne HSA in human serum, SDS-PAGE fluorescence and Coomassie Blue
Assay type: biochemical
Experimental: Protein SDS-PAGE gels were exposed at green channel (Exc.=490 nm, Emm.=525 nm), then stained by Coomassie Blue.
To 100 μl human serum was added 10 μl FC-LYL1 or 10 μl FC-Mal stock solution (1 mM). The albumin content in serum is presumed to be 600 μM for healthy donors. The final concentrations of albumin and FC-labeled reactive probes in the reaction mixture are calculated to be 545 µM and 91 μM, respectively. The serum/ligands mixture was incubated at 37° C. in dark. The conjugation reactions were setup every 3 days, and […] conjugation reactions were setup in total for 3 weeks. The serum mixtures were subjected to electrophoresis and Coommassie Blue Staining without further treatment. Since albumin to probe ratio was about 6:1 and there are 5 known fatty acid binding sites on each albumin molecule, fatty acid binding site:probe ratio was over […]. We therefore believe significant portion of the reactive probes would be sequestered in the “non-productive” (no covalent ligation) fatty acid binding sites most of the time.

FC-LYL1: FITC-tagged LYL1 (Myristoyl-[dE]DK(Acryloyl)[dS][Aad]; not fully specified (C-terminus); also: FITC on amino group of C-terminal lysine)
reaction speed in human serum (545 μM albumin, 91 μM probe, 37° C.): slow reaction over days | selectivity of protein labeling in serum (human serum, SDS-PAGE green channel): can selectively label albumin content
